Reference: article PMC9668993, “CBP-HSF2 structural and functional interplay in Rubinstein-Taybi neurodevelopmental disorder” (Nature Communications, 2022)

Target: T1, CBP-Full-HAT, full-catalytic domain of murine CBP (1096-1700), 6 His-tagged (murine, UniProt P45481 1096-1700)
T1 construct: also called CBP core catalytic domain; source: recombinant, purified
T1 sequence (looked up): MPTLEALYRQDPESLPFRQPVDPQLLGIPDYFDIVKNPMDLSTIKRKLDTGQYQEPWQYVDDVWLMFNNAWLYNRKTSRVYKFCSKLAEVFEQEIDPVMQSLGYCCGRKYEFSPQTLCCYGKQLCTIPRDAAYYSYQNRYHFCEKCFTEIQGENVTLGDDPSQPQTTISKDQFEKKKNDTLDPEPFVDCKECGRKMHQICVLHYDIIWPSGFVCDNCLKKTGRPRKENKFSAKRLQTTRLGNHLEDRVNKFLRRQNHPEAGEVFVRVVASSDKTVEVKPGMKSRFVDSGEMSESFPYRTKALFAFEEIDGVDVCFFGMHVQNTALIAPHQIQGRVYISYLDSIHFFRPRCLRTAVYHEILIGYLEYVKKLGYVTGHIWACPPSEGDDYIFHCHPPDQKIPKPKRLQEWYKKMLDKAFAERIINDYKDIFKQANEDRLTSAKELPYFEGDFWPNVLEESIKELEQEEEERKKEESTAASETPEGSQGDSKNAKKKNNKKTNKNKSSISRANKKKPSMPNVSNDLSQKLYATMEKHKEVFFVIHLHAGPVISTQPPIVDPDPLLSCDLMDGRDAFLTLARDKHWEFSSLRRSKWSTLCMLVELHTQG
Assay: BLI; Octet Red; biotinylated recombinant HSF2 immobilised at 100 nM on streptavidin biosensors in PBS; analytes diluted in PBS at 100 nM, association 600 s; Kd with a 1:1 stoichiometry model, global fit with Rmax unlinked by sensor
Conditions: both partners purified

B1: biotinylated recombinant full-length HSF2 (recHSF2) (natural protein, UniProt Q03933 1-536, looked up)
chain: MKQSSNVPAFLSKLWTLVEETHTNEFITWSQNGQSFLVLDEQRFAKEILPKYFKHNNMASFVRQLNMYGFRKVVHIDSGIVKQERDGPVEFQHPYFKQGQDDLLENIKRKVSSSKPEENKIRQEDLTKIISSAQKVQIKQETIESRLSELKSENESLWKEVSELRAKHAQQQQVIRKIVQFIVTLVQNNQLVSLKRKRPLLLNTNGAQKKNLFQHIVKEPTDNHHHKVPHSRTEGLKPRERISDDIIIYDVTDDNADEENIPVIPETNEDVISDPSNCSQYPDIVIVEDDNEDEYAPVIQSGEQNEPARESLSSGSDGSSPLMSSAVQLNGSSSLTSEDPVTMMDSILNDNINLLGKVELLDYLDSIDCSLEDFQAMLSGRQFSIDPDLLVDLFTSSVQMNPTDYINNTKSENKGLETTKNNVVQPVSEEGRKSKSKPDKQLIQYTAFPLLAFLDGNPASSVEQASTTASSEVLSSVDKPIEVDELLDSSLDPEPTQSKLVRLEPLTEAEASEATLFYLCELAPAPLDSDMPLLDS
modifications: biotinylated with EZ-Link NHS-PEG4-Biotin at a molar ratio biotin/protein (3:1)
notes: heat-shock factor 2, recombinant full-length protein, catalogue TP310751; also called recombinant HSF2; source: bought: Origen (TP310751)
For B1, the Kd was 1 nM.
